Experimental data taken from US20130115213A1.

Tests used:
[1] = molecular target: human CD3 (TCR/CD3 complex) on the cell surface (human) (UniProt P07766); assay: cell-based or functional assay
[2] = molecular target: human CD3 (TCR/CD3 complex) on the cell surface (human) (UniProt P07766); assay: flow cytometry on CD3+ Jurkat cells, Lineweaver-Burk fit
[3] = molecular target: human CD3 (TCR/CD3 complex) on the cell surface (human) (UniProt P07766); assay: cell surface retention on CD3+ Jurkat cells at 37 C; ln2/koff
[4] = molecular target: human CD3 (TCR/CD3 complex) on the cell surface (human) (UniProt P07766); assay: cell surface retention on CD3+ Jurkat cells at 37 C; reference scFv10
[5] = molecular target: human CD3 (TCR/CD3 complex) on the cell surface (human) (UniProt P07766); assay: cell surface retention on CD3+ Jurkat cells at 37 C, flow cytometry, one-phase exponential decay fit

UniProt P07766, sequence (P07766 23-207, one chain of several): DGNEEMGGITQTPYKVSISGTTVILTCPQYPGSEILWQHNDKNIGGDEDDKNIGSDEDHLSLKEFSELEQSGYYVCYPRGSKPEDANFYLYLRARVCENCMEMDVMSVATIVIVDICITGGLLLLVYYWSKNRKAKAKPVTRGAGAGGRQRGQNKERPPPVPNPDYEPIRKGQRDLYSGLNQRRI

CD3 modulation (fraction of TCR/CD3 complexes on the surface of T cells that is lost after antibody treatment), PBMC, 24 h [1]: > 90%
Kd [2]: 2.06 nM
t1/2 [3]: 2.59 min
fold longer t1/2 against scFv10 [4]: 2.5 fold
koff [5]: 0.00447 s⁻¹
Substance: mAb OKT3 (Orthoclone OKT3, Cilag) (antibody)
